From patent US20250136699A1 (JIANGSU BIOJETAY BIOTECHNOLOGY, published 2025) come the findings set out here.

In assay [1] the target is T1, human FCGRT (human, UniProt P55899 24-297, biotinylated (Avi tag) in the blocking assays).
T1 construct: Alpha chain alone, expressed in Expi293 cells with His and Avi tags; also called FCGRT of human FcRn protein; biotinylated human FCGRT; not shown: His tag and Avi tag
Briefly: competition ELISA: human IgG coated, biotinylated human FCGRT plus antibody, SA-HRP.

For assay [2], the target named is T2, Human recombinant FCGRT & B2M Heterodimer Protein (hFcRn) (human, UniProt P55899 24-297; P61769 21-119).
T2 construct: Bought protein; also called human FcRn
T2 sequence (P55899 24-297 limits assumed, chain 1 of 2): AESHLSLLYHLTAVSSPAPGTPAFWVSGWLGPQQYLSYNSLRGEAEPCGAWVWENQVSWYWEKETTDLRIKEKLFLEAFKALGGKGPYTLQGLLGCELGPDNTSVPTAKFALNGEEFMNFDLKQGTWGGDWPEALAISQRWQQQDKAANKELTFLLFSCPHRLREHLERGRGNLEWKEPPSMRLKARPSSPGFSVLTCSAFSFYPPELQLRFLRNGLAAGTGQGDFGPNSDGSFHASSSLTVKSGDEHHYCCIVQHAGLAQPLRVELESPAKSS
T2 sequence (P61769 21-119 limits assumed, chain 2 of 2): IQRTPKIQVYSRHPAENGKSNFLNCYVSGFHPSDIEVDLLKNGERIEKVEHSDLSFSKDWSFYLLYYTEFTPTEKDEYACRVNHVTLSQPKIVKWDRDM
The assay can be described thus: SPR, Biacore T200, antibody (IgG4) on CM5 chip, hFcRn in solution, pH 6.0. On the technique in general: In SPR one partner is held on a chip, and binding of the other changes the refractive index at the surface.
Procedure: The anti-FcRn antibodies were stabilized on sensor chip CM5. The affinities for hFcRn of antibodies at various concentrations were measured. […] Using the SPR technology, the association and dissociation rates were measured, and binding affinity was determined.

In assay [3] the target is human FcRn (human FCGRT and B2M) on stably transfected MDCK cells (human, UniProt P55899 24-365; P61769 21-119). Briefly: cell-based or functional assay.
Sequence of human FcRn (human FCGRT and B2M) on stably transfected MDCK cells (P55899 24-365, chain 1 of 2): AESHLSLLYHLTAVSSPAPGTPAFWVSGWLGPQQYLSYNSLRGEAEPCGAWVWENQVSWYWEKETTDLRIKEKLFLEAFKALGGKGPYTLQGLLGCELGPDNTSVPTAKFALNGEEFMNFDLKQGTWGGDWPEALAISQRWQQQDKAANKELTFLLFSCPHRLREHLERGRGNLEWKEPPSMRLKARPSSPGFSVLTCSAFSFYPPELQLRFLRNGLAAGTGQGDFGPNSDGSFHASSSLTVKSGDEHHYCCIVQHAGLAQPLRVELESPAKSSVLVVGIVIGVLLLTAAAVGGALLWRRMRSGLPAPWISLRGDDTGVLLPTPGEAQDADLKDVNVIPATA
Sequence of human FcRn (human FCGRT and B2M) on stably transfected MDCK cells (P61769 21-119, chain 2 of 2): as the sequence (P61769 21-119 limits assumed, chain 2 of 2) above
The target of a further assay is T3, human B2M (human, UniProt P61769 21-119, limits assumed).
T3 construct: also called beta-2-microglobulin; not shown: His tag and Avi tag
T3 sequence (P61769 21-119 limits assumed): as the sequence (P61769 21-119 limits assumed, chain 2 of 2) above
Briefly: ELISA: human B2M coated, antibody titrated, OD450. (In general: In an ELISA, binding on a coated surface is turned into a signal by an enzyme label.)

Assay [4] addresses T2, Human recombinant FCGRT & B2M …. Briefly: ELISA on coated hFcRn, IgG4 antibody titrated.
Procedure: hFcRn binding of purified full-length chimeric antibodies: The hFcRn antigen binding ELISA was performed on the purified full-length chimeric antibodies (reformatted as IgG4). Briefly, plates were coated overnight at 4° C. with 1 μg/mL of hFcRn (cat #CT009-H08H) in PBS. After removing the coating solution, the wells were blocked by adding blocking buffer and incubated at room temperature for 1 hour. Plates were then washed 6 times with wash buffer. Serial dilutions of purified antibodies in PBS were added to individual wells followed by incubation at room temperature for 1 hour. Plates were washed 6 times with wash buffer. […] Plates were incubated at 37° C. for 1 hour, washed 6 times with wash buffer, and developed for 5-10 minutes with 50 L/well of TMB substrate, then quenched with 2M H₂SO₄. […] The ELISA results (OD450) were analyzed, and the binding curves were generated by Graphpad PRISM.
Assay [5] concerns the target T1, human FCGRT. The assay can be described thus: ELISA on coated human FCGRT, IgG4 antibody titrated.
Procedure: (§1) Measurement of the binding specificity of anti-FcRn antibodies to FCGRT and B2M by EILSA: Briefly, human FCGRT or B2M was coated on a 96-well plate at 4° C. overnight, after removing the coating solution, a blocking buffer containing 1% BSA was added into the plates followed by incubation at room temperature for 1 hour to block unspecific binding. Plates were then washed with wash buffer, and serial dilutions of anti-FcRn antibodies were added to the wells and incubated at room temperature for 1 hour. […] The wells were washed before adding 100 μL/well of TMB and incubated for 5-10 minutes at 37° C. 2M H₂SO₄ was used to stop the reaction. […] The ELISA results (OD450) were analyzed, and the binding curves were generated by Graphpad PRISM.
In assay [6] the target is T4, Cynomolgus monkey FcRn-alpha (cynomolgus monkey, UniProt Q8SPV9 24-297, limits assumed).
T4 construct: The printed entry looks like the full-length precursor (signal peptide, transmembrane and cytoplasmic parts); also called cynoFcRn; not shown: His tag and Avi tag
T4 sequence (Q8SPV9 24-297 limits assumed): as the sequence (P55899 24-297 limits assumed, chain 1 of 2) above, with N39D, E44Q, G99S, S189G, S190N, L217M, S269T counted along it
The assay can be described thus: ELISA on coated cynoFcRn, IgG4 antibody titrated.

By IC50 is commonly meant the concentration at which inhibition is half-maximal. Usually Kd stands for a measure of binding affinity in units of concentration. One may read the EC50 as the concentration needed to bring the measured effect to its halfway point. By koff is commonly meant a measure of how fast the partners let go of each other. For orientation: kon means a measure of how fast the partners come together.

T1 sequence (P55899 24-297 limits assumed): as the sequence (P55899 24-297 limits assumed, chain 1 of 2) above
Procedure for human B2M: as §1

B1: ZLP1-3-2F (antibody, V domains shown)
VH: QVQLQESGPGLVKPSETLSLTCAVSGYSFTSGYSWHWIRQPPGKGLEWIGYIHDSGGTNYNPSLKSRVTISRDTSKNQFSLKLSSVTAADTAVYYCAREENYRYFDVWGQGTLVTVSS
VL: EIVLTQSPATLSLSPGERATLSCSASSSVSYMHWFQQKPGQSPRLLIYSTSNLASGIPARFSGSGSGTDFTLTISSLEPEDFAVYYCQQRSSYPPTFGQGTKVEIK
Regarding B1, in the assay with human FCGRT [1], the IC50 is 5.77 nM. For the same molecule, the Kd in assay [2] worked out at 0.609 nM. Further, in assay [3], the “IgG Recycle IC50” value worked out at 8.36 nM. Further, the binding result in the assay with human B2M is “no binding (tested: about 700 nM (Log[Ab] about 2.8))”. Moreover, the figures for the concentration giving a half-maximal response (EC50) (in assay [4]; with human FCGRT [5]; in assay [6]) were 6.63 nM, 1.02 nM and 2.06 nM, respectively.

B2: ZLP1-3-2M (antibody, V domains shown)
VH: QVQLQESGPGLVKPSETLSLTCTVTGYSFTSGYSWHWIRQPPGKGLEWIGYIHDSGGTNYNPSLKSRVTISRDTSKNQFSLKLSSVTAADTAVYYCAREENYRYFDVWGQGTLVTVSS
VL: EIVLTQSPATLSLSPGERATLSCSASSSVSYMHWFQQKPGQSPRLLIYSTSNLASGIPARFSGSGSGTDFTLTISSLEPEDFAVYYCQQRSSYPPTFGQGTKVEIK
With B2, the IC50 with human FCGRT [1] was 5.12 nM. For the same molecule, the Kd in assay [2] came out at 0.493 nM. Moreover, the dissociation rate constant (koff) in assay [2] amounted to 0.00184 s⁻¹. The kon in assay [2] turned out to be 3.73e+06 M⁻¹ s⁻¹. For the same molecule, the “IgG Recycle IC50” value in assay [3] was 11.9 nM. Further, in the assay with human B2M, the binding result is “no binding (tested: about 700 nM (Log[Ab] about 2.8))”. Moreover, the EC50 in assay [4] worked out at 3.11 nM; in the assay with human FCGRT [5] it was 1.22 nM; in assay [6] it was 2.82 nM.

B3: ZLP1-3-2 (antibody, V domains shown)
VH: QVQLQESGPGLVKPSETLSLTCAVSGYSFTSGYSWHWIRQPPGKGLEWIGYIHDSGGTNYNPSLKSRVTISRDTSKNQFSLKLSSVTAADTAVYYCAREENYRYFDVWGQGTLVTVSS
VL: EIVLTQSPATLSLSPGERATLSCSASSSVSYMHWFQQKPGQSPRLWIYSTSNLASGIPARFSGSGSGTDYTLTISSLEPEDFAVYYCQQRSSYPPTFGQGTKVEIK
notes: also called humanized version of ZLP193
For B3, the IC50 with human FCGRT [1] was 6.16 nM. In assay [3], the “IgG Recycle IC50” value turned out to be 4.04 nM. Besides, the binding result with human B2M is “no binding (tested: about 700 nM (Log[Ab] about 2.8))”. Moreover, the EC50 amounted to 2.95 nM in assay [4], 1.5 nM in the assay with human FCGRT [5] and 3.12 nM in assay [6].
